56 variants from the RNAGym collection of RNA variant scans (doi:10.7554/elife.90254) can be followed below.

The labels stand for the following.
B1: LINE1-mini (parent)
chain: GGCAGAGCUCAACACAGCGUGGCAAAGUGGCUGUGGCUAGACUGCC

The variants in the series derive from B1. The experiment in a line: self-cleavage, relative activity (ratio to wild type); higher = more cleavage; in vitro, sequencing; the parent is a self-cleaving ribozyme.
Take GUCAGAGCUUAACACAGCGUGGCAAAGUGGCUGUGGCUAGACUGCC [G2U C10U]: the self-cleavage amounted to 0.03. As to GUCAGAGCUGAACACAGCGUGGCAAAGUGGCUGUGGCUAGACUGCC [G2U C10G], the self-cleavage came out at 0.02.

Consider GUCAGAGCUCAACACAGCGUGGCAAAGUGGCUGUGGCUAGACUGAC [G2U C45A], for which the self-cleavage was 0.45. Consider GUCAGAGCUCAACACAGCGUGGCAAAGUGGCUGUGGCUAGACUGUC [G2U C45U], for which the self-cleavage worked out at 0.11. GUCAGAGCUCAACACAGCGUGGCAAAGUGGCUGUGGCUAGACUGGC [G2U C45G]: the self-cleavage came out at 0.23. GUCAGAGCUCAACACAGCGUGGCAAAGUGGCUGUGGAUAGACUGCC [G2U C37A]: the self-cleavage stood at 0.03.

Regarding GUCAGAGCUCAACACAGCGUGGCAAAGUGGCUGUGGUUAGACUGCC [G2U C37U], the self-cleavage stood at 0.05. Take GUCAGAGCUCAACACAGCGUGGCAAAGUGGCUGUGGGUAGACUGCC [G2U C37G]: the self-cleavage turned out to be 0.04. Take GUCAGAGCUCAACACAGCGUGGCAAAGUGGCUGUGGCUAGACUGCA [G2U C46A]: the self-cleavage is 0.09.

As to GUCAGAGCUCAACACAGCGUGGCAAAGUGGCUGUGGCUAGACUGCU [G2U C46U], the self-cleavage came out at 0.06.

For the variant GUCAGAGCUCAACACAGCGUGGCAAAGUGGCUGUGGCUAGACUGCG [G2U C46G], the self-cleavage worked out at 0.1.

For the variant GUCAGAGCUCAACAUAGCGUGGCAAAGUGGCUGUGGCUAGACUGCC [G2U C15U], the self-cleavage amounted to 0.05. With GUCAGAGCUCAACAAAGCGUGGCAAAGUGGCUGUGGCUAGACUGCC [G2U C15A], the self-cleavage was 0.04. In the case of GUCAGAGCUCAACAGAGCGUGGCAAAGUGGCUGUGGCUAGACUGCC [G2U C15G] it was 0.02; in that of GUCAGAGCUCAACACAGCGUGGCAAAGUGGCUGUCGCUAGACUGCC [G2U G35C], 0.05. In the case of GUCAGAGCUCAACACAGCGUGGCAAAGUGGCUGUUGCUAGACUGCC [G2U G35U] it was 0.07; in that of GUCAGAGCUCAACACAGCGUGGCAAAGUGGCUGUAGCUAGACUGCC [G2U G35A], 0.05.

Turning to GUCAGAGCUCAACACAGCGUGGCAAAGUGGCUGUGGCUACACUGCC [G2U G40C], the self-cleavage turned out to be 0.03. Regarding GUCAGAGCUCAACACAGCGUGGCAAAGUGGCUGUGGCUAUACUGCC [G2U G40U], the self-cleavage was 0.04. Turning to GUCAGAGCUCAACACAGCGUGGCAAAGUGGCUGUGGCUAAACUGCC [G2U G40A], the self-cleavage was found to be 0.03.

As to GUCAGAGCUCAACACACCGUGGCAAAGUGGCUGUGGCUAGACUGCC [G2U G17C], the self-cleavage was 0.05. Under GUCAGAGCUCAACACAACGUGGCAAAGUGGCUGUGGCUAGACUGCC [G2U G17A] stands 0.03. As for GUCAGAGCUCAACACAUCGUGGCAAAGUGGCUGUGGCUAGACUGCC [G2U G17U], the self-cleavage was found to be 0.04. In the case of GUCAGUGCUCAACACAGCGUGGCAAAGUGGCUGUGGCUAGACUGCC [G2U A6U], the self-cleavage amounted to 0.16. In the case of GUCAGCGCUCAACACAGCGUGGCAAAGUGGCUGUGGCUAGACUGCC [G2U A6C] it was 0.04; in that of GUCAGGGCUCAACACAGCGUGGCAAAGUGGCUGUGGCUAGACUGCC [G2U A6G], 0.03; in that of GUCAGAGCUCAACACAGCGUGGCAAAGUGGCUGUGCCUAGACUGCC [G2U G36C], 0.05. Regarding GUCAGAGCUCAACACAGCGUGGCAAAGUGGCUGUGUCUAGACUGCC [G2U G36U], the self-cleavage was 0.04. Under GUCAGAGCUCAACACAGCGUGGCAAAGUGGCUGUGACUAGACUGCC [G2U G36A] stands 0.05; under GUCACAGCUCAACACAGCGUGGCAAAGUGGCUGUGGCUAGACUGCC [G2U G5C], 0.04. With GUCAAAGCUCAACACAGCGUGGCAAAGUGGCUGUGGCUAGACUGCC [G2U G5A], the self-cleavage was 0.06. Turning to GUCAUAGCUCAACACAGCGUGGCAAAGUGGCUGUGGCUAGACUGCC [G2U G5U], the self-cleavage worked out at 0.02. Turning to GUCGGAGCUCAACACAGCGUGGCAAAGUGGCUGUGGCUAGACUGCC [G2U A4G], the self-cleavage was found to be 0.12. In the case of GUCUGAGCUCAACACAGCGUGGCAAAGUGGCUGUGGCUAGACUGCC [G2U A4U] it was 0.08; in that of GUCCGAGCUCAACACAGCGUGGCAAAGUGGCUGUGGCUAGACUGCC [G2U A4C], 0.07; in that of GUGAGAGCUCAACACAGCGUGGCAAAGUGGCUGUGGCUAGACUGCC [G2U C3G], 0.26.

For the variant GUUAGAGCUCAACACAGCGUGGCAAAGUGGCUGUGGCUAGACUGCC [G2U C3U], the self-cleavage turned out to be 0.37. As for GUAAGAGCUCAACACAGCGUGGCAAAGUGGCUGUGGCUAGACUGCC [G2U C3A], the self-cleavage worked out at 0.48.

With GUCAGAGCUCACCACAGCGUGGCAAAGUGGCUGUGGCUAGACUGCC [G2U A12C], the self-cleavage came to 0.02. Turning to GUCAGAGCUCAUCACAGCGUGGCAAAGUGGCUGUGGCUAGACUGCC [G2U A12U], the self-cleavage was 0.04. GUCAGAGCUCAGCACAGCGUGGCAAAGUGGCUGUGGCUAGACUGCC [G2U A12G]: the self-cleavage was found to be 0.02. In the case of GUCAGAGCUCAACACAGCGUGGUAAAGUGGCUGUGGCUAGACUGCC [G2U C23U] it was 0.15; in that of GUCAGAGCUCAACACAGCGUGGAAAAGUGGCUGUGGCUAGACUGCC [G2U C23A], 0.16. In the case of GUCAGAGCUCAACACAGCGUGGGAAAGUGGCUGUGGCUAGACUGCC [G2U C23G], the self-cleavage turned out to be 0.04. In the case of GUCAGAGCUCAACACAGCGUGGCAAAGUGACUGUGGCUAGACUGCC [G2U G30A] it was 0.09; in that of GUCAGAGCUCAACACAGCGUGGCAAAGUGCCUGUGGCUAGACUGCC [G2U G30C], 0.1; in that of GUCAGAGCUCAACACAGCGUGGCAAAGUGUCUGUGGCUAGACUGCC [G2U G30U], 0.1. Take GUCAGAGCUCAACACAGCGUGGCAAAAUGGCUGUGGCUAGACUGCC [G2U G27A]: the self-cleavage is 0.15. Consider GUCAGAGCUCAACACAGCGUGGCAAACUGGCUGUGGCUAGACUGCC [G2U G27C], for which the self-cleavage amounted to 0.09. With GUCAGAGCUCAACACAGCGUGGCAAAUUGGCUGUGGCUAGACUGCC [G2U G27U], the self-cleavage was 0.06. Take GUCAGAGCUCAACACAGCGUGGCAAAGUGGCUGUGGCUAGAAUGCC [G2U C42A]: the self-cleavage turned out to be 0.06. GUCAGAGCUCAACACAGCGUGGCAAAGUGGCUGUGGCUAGAUUGCC [G2U C42U]: the self-cleavage amounted to 0.1. In the case of GUCAGAGCUCAACACAGCGUGGCAAAGUGGCUGUGGCUAGAGUGCC [G2U C42G], the self-cleavage is 0.02. Take GUCAGAGCUCAACACUGCGUGGCAAAGUGGCUGUGGCUAGACUGCC [G2U A16U]: the self-cleavage was determined as 0.02. In the case of GUCAGAGCUCAACACCGCGUGGCAAAGUGGCUGUGGCUAGACUGCC [G2U A16C] it was 0.13; in that of GUCAGAGCUCAACACGGCGUGGCAAAGUGGCUGUGGCUAGACUGCC [G2U A16G], 0.05.
